The source of these data is PMC12666658.

Assay [1] has as its target CD3 receptor on T cells (human PBMCs) (human (endogenous in PBMCs)) (UniProt P07766).
For assay [2] the target is unchanged. This is another data set of the same source.
For assay [3] the target is unchanged. The source holds these as a separate data set.

Sequence of UniProt P07766 (P07766 23-207): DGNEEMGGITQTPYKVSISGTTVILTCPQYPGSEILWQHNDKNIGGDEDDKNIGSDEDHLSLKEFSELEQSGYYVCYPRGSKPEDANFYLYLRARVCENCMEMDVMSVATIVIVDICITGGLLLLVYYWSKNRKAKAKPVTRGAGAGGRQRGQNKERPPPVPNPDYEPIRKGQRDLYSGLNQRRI

“SadP-scFv UCHT1 lectibody (from UniProt G5DSS1)” displayed a fold increase of CD69 on CD3+ T cells (PBMCs co-cultured with Gb3+ Ramos cells), 5 or 10 nM lectibody, 18 and 24 hours; highest at 10 nM and 24 hours in assay [1] of 5 to 8 fold. Also, the specific lysis of Gb3+ Ramos cells by PBMCs (E:T 5:1), bioluminescence-based cytotoxicity assay, 0.2–10 nM lectibody, 7 to 48 hours; highest at 10 nM and 48 hours in assay [2] was determined as 65%. This substance showed a fold increase of CD71 on CD3+ T cells (PBMCs co-cultured with Gb3+ Ramos cells), 5 or 10 nM lectibody, 24 and 48 hours; highest at 10 nM and 48 hours in assay [3] of 25 fold.
